# Data from the supplement of paper PMC10567573.
# B1: RAB40A (parent)
# chain: NWLGRPSKVLSLQDLCCRTIVSCT
# Variants of: B1
# Assay: protein stability index of a GFP-peptide fusion (GPS, HEK-293T) (PSI 1-6); higher = more stable
# Details: c terminus: a fixed tail appended
# 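Also: lentivirally expressed fusions sorted by FACS into six bins by GFP to DsRed ratio, PSI derived from sequencing read proportions per bin multiplied by bin number.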
row,Variant,protein stability index
1,NWLGKPSKVLSLQDLCCRTIVSCT [R5K],2.42
2,NWLGIPSKVLSLQDLCCRTIVSCT [R5I],2.2
3,NWLGDPSKVLSLQDLCCRTIVSCT [R5D],2.51
4,NWLGYPSKVLSLQDLCCRTIVSCT [R5Y],2.06
5,NWLGWPSKVLSLQDLCCRTIVSCT [R5W],3.09
6,NWLGQPSKVLSLQDLCCRTIVSCT [R5Q],2.55
7,NWLGSPSKVLSLQDLCCRTIVSCT [R5S],2.69
8,NWLGVPSKVLSLQDLCCRTIVSCT [R5V],2.52
9,NWLGGPSKVLSLQDLCCRTIVSCT [R5G],2.35
10,NWLGNPSKVLSLQDLCCRTIVSCT [R5N],2.56
11,NWLGAPSKVLSLQDLCCRTIVSCT [R5A],2.46
12,NWLGEPSKVLSLQDLCCRTIVSCT [R5E],2.7
13,NWLGHPSKVLSLQDLCCRTIVSCT [R5H],2.25
14,NWLGMPSKVLSLQDLCCRTIVSCT [R5M],2.85
15,NWLGFPSKVLSLQDLCCRTIVSCT [R5F],2.27
16,NWLGTPSKVLSLQDLCCRTIVSCT [R5T],2.42
17,NWLGLPSKVLSLQDLCCRTIVSCT [R5L],2.06
18,NWLRRPSKVLSLQDLCCRTIVSCT [G4R],2.42
19,NWLWRPSKVLSLQDLCCRTIVSCT [G4W],2.09
20,NWLIRPSKVLSLQDLCCRTIVSCT [G4I],2.13
21,NWLTRPSKVLSLQDLCCRTIVSCT [G4T],2.07
22,NWLQRPSKVLSLQDLCCRTIVSCT [G4Q],2.34
23,NWLNRPSKVLSLQDLCCRTIVSCT [G4N],2.27
24,NWLHRPSKVLSLQDLCCRTIVSCT [G4H],2.33

row,Variant,protein stability index
1,NWLCRPSKVLSLQDLCCRTIVSCT [G4C],1.5
2,NWLMRPSKVLSLQDLCCRTIVSCT [G4M],2.34
3,NWLVRPSKVLSLQDLCCRTIVSCT [G4V],2.56
4,NWLERPSKVLSLQDLCCRTIVSCT [G4E],2.77
5,NWLDRPSKVLSLQDLCCRTIVSCT [G4D],2.57
6,NWLFRPSKVLSLQDLCCRTIVSCT [G4F],2.23
7,NWLSRPSKVLSLQDLCCRTIVSCT [G4S],2.21
8,NWLPRPSKVLSLQDLCCRTIVSCT [G4P],2.42
9,NWLARPSKVLSLQDLCCRTIVSCT [G4A],2.73
10,NWLLRPSKVLSLQDLCCRTIVSCT [G4L],2.29
11,NWLYRPSKVLSLQDLCCRTIVSCT [G4Y],2.35
12,NWLKRPSKVLSLQDLCCRTIVSCT [G4K],2.48
13,NWLGRPSKVLALQDLCCRTIVSCT [S11A],1.88
14,NWLGRPSKTLSLQDLCCRTIVSCT [V9T],2.45
15,NWLGRPSKFLSLQDLCCRTIVSCT [V9F],1.93
16,NWLGRPSKELSLQDLCCRTIVSCT [V9E],2.3
17,NWLGRPSKGLSLQDLCCRTIVSCT [V9G],2.32
18,NWLGRPSKNLSLQDLCCRTIVSCT [V9N],2.4
19,NWLGRPSKKLSLQDLCCRTIVSCT [V9K],2.29
20,NWLGRPSKMLSLQDLCCRTIVSCT [V9M],2.23
21,NWLGRPSKPLSLQDLCCRTIVSCT [V9P],2.09
22,NWLGRPSKLLSLQDLCCRTIVSCT [V9L],2.12
23,NWLGRPSKCLSLQDLCCRTIVSCT [V9C],2.07
24,NWLGRPSKSLSLQDLCCRTIVSCT [V9S],2.05

row,Variant,protein stability index
1,NWLGRPSKRLSLQDLCCRTIVSCT [V9R],1.85
2,NWLGRPSKQLSLQDLCCRTIVSCT [V9Q],2.2
3,NWLGRPSKWLSLQDLCCRTIVSCT [V9W],2.16
4,NWLGRPSKYLSLQDLCCRTIVSCT [V9Y],2.23
5,NWLGRPSKILSLQDLCCRTIVSCT [V9I],2.36
6,NWLGRPSKHLSLQDLCCRTIVSCT [V9H],2.21
7,NWLGRPSKALSLQDLCCRTIVSCT [V9A],2.31
8,NWLGRPSKDLSLQDLCCRTIVSCT [V9D],2.28
9,NWLGRPWKVLSLQDLCCRTIVSCT [S7W],1.82
10,NWLGRPFKVLSLQDLCCRTIVSCT [S7F],2.28
11,NWLGRPHKVLSLQDLCCRTIVSCT [S7H],1.96
12,NWLGRPKKVLSLQDLCCRTIVSCT [S7K],2.59
13,NWLGRPMKVLSLQDLCCRTIVSCT [S7M],2.03
14,NWLGRPNKVLSLQDLCCRTIVSCT [S7N],1.95
15,NWLGRPLKVLSLQDLCCRTIVSCT [S7L],2.13
16,NWLGRPQKVLSLQDLCCRTIVSCT [S7Q],2.47
17,NWLGRPRKVLSLQDLCCRTIVSCT [S7R],2.02
18,NWLGRPGKVLSLQDLCCRTIVSCT [S7G],2.15
19,NWLGRPYKVLSLQDLCCRTIVSCT [S7Y],1.92
20,NWLGRPVKVLSLQDLCCRTIVSCT [S7V],2.22
21,NWLGRPCKVLSLQDLCCRTIVSCT [S7C],2.21
22,NWLGRPDKVLSLQDLCCRTIVSCT [S7D],2.28
23,NWLGRPPKVLSLQDLCCRTIVSCT [S7P],2.27
24,NWLGRPAKVLSLQDLCCRTIVSCT [S7A],2.24

row,Variant,protein stability index
1,NWLGRPEKVLSLQDLCCRTIVSCT [S7E],2.12
2,NWLGRPTKVLSLQDLCCRTIVSCT [S7T],2.41
3,NWLGRPIKVLSLQDLCCRTIVSCT [S7I],2.25
4,NWLGRYSKVLSLQDLCCRTIVSCT [P6Y],1.88
5,NWLGRHSKVLSLQDLCCRTIVSCT [P6H],2.21
6,NWLGRCSKVLSLQDLCCRTIVSCT [P6C],2.13
7,NWLGRESKVLSLQDLCCRTIVSCT [P6E],2.55
8,NWLGRDSKVLSLQDLCCRTIVSCT [P6D],2.48
9,NWLGRSSKVLSLQDLCCRTIVSCT [P6S],2.38
10,NWLGRVSKVLSLQDLCCRTIVSCT [P6V],1.91
11,NWLGRMSKVLSLQDLCCRTIVSCT [P6M],1.76
12,NWLGRNSKVLSLQDLCCRTIVSCT [P6N],2.66
13,NWLGRTSKVLSLQDLCCRTIVSCT [P6T],2.14
14,NWLGRASKVLSLQDLCCRTIVSCT [P6A],1.79
15,NWLGRKSKVLSLQDLCCRTIVSCT [P6K],2.06
16,NWLGRISKVLSLQDLCCRTIVSCT [P6I],2.4
17,NWLGRGSKVLSLQDLCCRTIVSCT [P6G],2.25
18,NWLGRRSKVLSLQDLCCRTIVSCT [P6R],2.29
19,NWLGRQSKVLSLQDLCCRTIVSCT [P6Q],2.06
20,NWLGRLSKVLSLQDLCCRTIVSCT [P6L],1.76
21,NWLGRWSKVLSLQDLCCRTIVSCT [P6W],2.11
22,NWLGRFSKVLSLQDLCCRTIVSCT [P6F],2.17
